# Reference: paper PMC10830420
# B1: crystallography RNA template:DNA primer hybrid (DNA:RNA)
# RNA: UUAGGAAAGCGC
# DNA: GCGCTTTCC
# modifications: 3' dideoxy-C on DNA primer
# B2: cryo-EM RNA:DNA hybrid (DNA:RNA)
# RNA: GGAGCGAAAUUUUCGC
# DNA: GCGAAAATTTCGC
# modifications: 3' dideoxy-C on DNA primer
# B3: oligo-25(A) ssRNA (ssRNA)
# RNA: AAAAAAAAAAAAAAAAAAAAAAAAA
# Key:
# ORF2p-His8 core = ORF2p-His8 core (human (Homo sapiens), UniProt O00370 238-1061); experiment: X-ray crystallography (2.1 A); dTTP, Mg2+; DSF: 20 mM HEPES-KOH pH 7.6, 100 mM NaCl, 1 mM DTT, 2 mM Mg acetate, thermal ramp; crystals: protein 3 mg/mL, 50 mM NaCl dilution, 2 mM MgCl2, 2 mM dTTP, 1.3:1
# ORF2p core [1] = biological target: T1, ORF2p core (human (Homo sapiens), UniProt O00370 238-1061); experiment: cryo-EM (3.30 A); dTTP, Mg2+; DSF: 20 mM HEPES-KOH pH 7.6, 100 mM NaCl, 1 mM DTT, 2 mM Mg acetate, thermal ramp; crystals: protein 3 mg/mL, 50 mM NaCl dilution, 2 mM MgCl2, 2 mM dTTP, 1.3:1
# ORF2p core [2] = biological target: T1, ORF2p core; experiment: cryo-EM (3.66 A); DSF: 20 mM HEPES-KOH pH 7.6, 100 mM NaCl, 1 mM DTT, 2 mM Mg acetate, thermal ramp; crystals: protein 3 mg/mL, 50 mM NaCl dilution, 2 mM MgCl2, 2 mM dTTP, 1.3:1
binder,measurement,setting,value
B1,binding result,ORF2p-His8 core,binds
B2,binding result,ORF2p core [1],binds
B3,binding result,ORF2p core [2],binds
